Data published in publication PMC5396282, “Characterization of Carboxylic Acid Reductases as Enzymes in the Toolbox for Synthetic Chemistry” (Chemcatchem, 2017).
Each block holds one molecule with its values, some of them ahead of it.

How the values were obtained:
COc1ccc(C(=O)O)cc1 = experiment: purified protein; details: 1 mM ATP, 0.25 mM NADPH, 10 mM MgCl2, 100 mM Tris-HCl pH 7.5, 30 °C
O=C(O)/C=C/c1ccccc1 = experiment: purified protein; type: biochemical, Nocardia iowensis; details: 1 mM ATP, […] NADPH, 10 mM MgCl2, 100 mM Tris-HCl pH 7.5, 30 °C
CCCCCCCCCCCC(=O)O [1] = experiment: purified protein; type: biochemical, Nocardia iowensis; details: 1 mM ATP, […] NADPH, 10 mM MgCl2, 100 mM Tris-HCl pH 7.5, 30 °C
mpCAR = target: T1, mpCAR (Mycolicibacterium phlei, UniProt A0A5N5VEC4); experiment: NADPH oxidation at […] nm, product inhibition kinetics; type: biochemical; details: pH 7.5, 30 °C, 10 mM MgCl2
T1 construct: gene car; expressed in E. coli BL21(DE3) with B. subtilis Sfp (phosphopantetheinylated); around 130 kDa

CCCCCCCCCCCCCCCCCC(=O)O [2] = experiment: purified protein; details: 1 mM ATP, […] NADPH, 10 mM MgCl2, 100 mM Tris-HCl pH 7.5, 30 °C
CCCCCCCCCCCC(=O)O [3] = experiment: purified protein; details: 1 mM ATP, […] NADPH, 10 mM MgCl2, 100 mM Tris-HCl pH 7.5, 30 °C
CCCCCCCCCCCCCCCCCC(=O)O [4] = experiment: purified protein; type: biochemical, Tsukamurella paurometabola; details: 1 mM ATP, […] NADPH, 10 mM MgCl2, 100 mM Tris-HCl pH 7.5, 30 °C
O=C(O)C#Cc1ccccc1 = experiment: purified protein; type: biochemical, Tsukamurella paurometabola; details: 1 mM ATP, […] NADPH, 10 mM MgCl2, 100 mM Tris-HCl pH 7.5, 30 °C
CCCCCCCC(=O)O = experiment: purified protein; type: biochemical, Tsukamurella paurometabola; details: 1 mM ATP, […] NADPH, 10 mM MgCl2, 100 mM Tris-HCl pH 7.5, 30 °C
CCCCCCCCCCCC(=O)O [5] = experiment: purified protein; type: biochemical, Tsukamurella paurometabola; details: 1 mM ATP, […] NADPH, 10 mM MgCl2, 100 mM Tris-HCl pH 7.5, 30 °C
purified protein [6] = substrate: CCCCCCCCCCCC(=O)O; experiment: purified protein; type: biochemical, Mycolicibacterium smegmatis; details: 1 mM ATP, […] NADPH, 10 mM MgCl2, 100 mM Tris-HCl pH 7.5, 30 °C
purified protein [7] = substrate: O=C(O)/C=C/c1ccccc1; experiment: purified protein; details: 1 mM ATP, 0.25 mM NADPH, 10 mM MgCl2, 100 mM Tris-HCl pH 7.5, 30 °C
purified protein [8] = substrate: CCCCCCCC(=O)O; experiment: purified protein; details: 1 mM ATP, 0.25 mM NADPH, 10 mM MgCl2, 100 mM Tris-HCl pH 7.5, 30 °C
purified protein [9] = substrate: Cc1ccc(C(=O)O)cc1; experiment: purified protein; details: 1 mM ATP, 0.25 mM NADPH, 10 mM MgCl2, 100 mM Tris-HCl pH 7.5, 30 °C

Molecule: niCAR (Nocardia iowensis)
Km (COc1ccc(C(=O)O)cc1): 250 ± 10 µM
kcat (COc1ccc(C(=O)O)cc1): 0.817 s⁻¹
kcat/Km (COc1ccc(C(=O)O)cc1): 3330 M⁻¹ s⁻¹
Km (O=C(O)/C=C/c1ccccc1): 50 ± 20 µM
kcat (O=C(O)/C=C/c1ccccc1): 0.128 ± 0.0117 s⁻¹
kcat/Km (O=C(O)/C=C/c1ccccc1): 2830 ± 1170 M⁻¹ s⁻¹
Km (CCCCCCCCCCCC(=O)O [1]): 20 ± 10 µM
kcat (CCCCCCCCCCCC(=O)O [1]): 2.62 ± 0.15 s⁻¹
kcat/Km (CCCCCCCCCCCC(=O)O [1]): 117000 ± 33300 M⁻¹ s⁻¹

Ki (mpCAR; mixed inhibition with ATP): 220 ± 50 µM
Molecule: O=P(O)(O)OP(=O)(O)O [PPi]

Ki (mpCAR; competitive with ATP): 8200 ± 900 µM
Molecule: Nc1ncnc2c1ncn2[C@@H]1O[C@H](COP(=O)(O)O)[C@@H](O)[C@H]1O [AMP]

Ki (mpCAR; competitive with NADPH): 143 ± 8 µM
Molecule: NC(=O)c1ccc[n+]([C@@H]2O[C@H](COP(=O)(O)OP(=O)(O)OC[C@H]3O[C@@H](n4cnc5c(N)ncnc54)[C@H](OP(=O)(O)O)[C@@H]3O)[C@@H](O)[C@H]2O)c1 [NADP^+]

Molecule: noCAR (Nocardia otitidiscaviarum)
Km (CCCCCCCCCCCCCCCCCC(=O)O [2]): 20 ± 10 µM
kcat (CCCCCCCCCCCCCCCCCC(=O)O [2]): 0.183 ± 0.0167 s⁻¹
kcat/Km (CCCCCCCCCCCCCCCCCC(=O)O [2]): 8330 ± 5000 M⁻¹ s⁻¹
Km (CCCCCCCCCCCC(=O)O [3]): 40 ± 10 µM
kcat (CCCCCCCCCCCC(=O)O [3]): 1.65 ± 0.05 s⁻¹
kcat/Km (CCCCCCCCCCCC(=O)O [3]): 41700 ± 5000 M⁻¹ s⁻¹

Molecule: tpCAR (Tsukamurella paurometabola DSM 20162)
Km (CCCCCCCCCCCCCCCCCC(=O)O [4]): 120 ± 30 µM
kcat (CCCCCCCCCCCCCCCCCC(=O)O [4]): 0.25 ± 0.0167 s⁻¹
kcat/Km (CCCCCCCCCCCCCCCCCC(=O)O [4]): 2000 ± 500 M⁻¹ s⁻¹
Km (O=C(O)C#Cc1ccccc1): 90 ± 20 µM
kcat (O=C(O)C#Cc1ccccc1): 0.1 ± 0.0667 s⁻¹
kcat/Km (O=C(O)C#Cc1ccccc1): 1170 ± 667 M⁻¹ s⁻¹
Km (CCCCCCCC(=O)O): 200 ± 10 µM
kcat (CCCCCCCC(=O)O): 3.65 ± 0.05 s⁻¹
kcat/Km (CCCCCCCC(=O)O): 19000 ± 833 M⁻¹ s⁻¹
Km (CCCCCCCCCCCC(=O)O [5]): 40 ± 10 µM
kcat (CCCCCCCCCCCC(=O)O [5]): 2.62 ± 0.0833 s⁻¹
kcat/Km (CCCCCCCCCCCC(=O)O [5]): 60000 ± 6670 M⁻¹ s⁻¹

B1: msCAR (Mycolicibacterium smegmatis MC2 155) (protein)
chain: MTSDVHDATDGVTETALDDEQSTRRIAELYATDPEFAAAAPLPAVVDAAHKPGLRLAEILQTLFTGYGDRPALGYRARELATDEGGRTVTRLLPRFDTLTYAQVWSRVQAVAAALRHNFAQPIYPGDAVATIGFASPDYLTLDLVCAYLGLVSVPLQHNAPVSRLAPILAEVEPRILTVSAEYLDLAVESVRDVNSVSQLVVFDHHPEVDDHRDALARAREQLAGKGIAVTTLDAIADEGAGLPAEPIYTADHDQRLAMILYTSGSTGAPKGAMYTEAMVARLWTMSFITGDPTPVINVNFMPLNHLGGRIPISTAVQNGGTSYFVPESDMSTLFEDLALVRPTELGLVPRVADMLYQHHLATVDRLVTQGADELTAEKQAGAELREQVLGGRVITGFVSTAPLAAEMRAFLDITLGAHIVDGYGLTETGAVTRDGVIVRPPVIDYKLIDVPELGYFSTDKPYPRGELLVRSQTLTPGYYKRPEVTASVFDRDGYYHTGDVMAETAPDHLVYVDRRNNVLKLAQGEFVAVANLEAVFSGAALVRQIFVYGNSERSFLLAVVVPTPEALEQYDPAALKAALADSLQRTARDAELQSYEVPADFIVETEPFSAANGLLSGVGKLLRPNLKDRYGQRLEQMYADIAATQANQLRELRRAAATQPVIDTLTQAAATILGTGSEVASDAHFTDLGGDSLSALTLSNLLSDFFGFEVPVGTIVNPATNLAQLAQHIEAQRTAGDRRPSFTTVHGADATEIRASELTLDKFIDAETLRAAPGLPKVTTEPRTVLLSGANGWLGRFLTLQWLERLAPVGGTLITIVRGRDDAAARARLTQAYDTDPELSRRFAELADRHLRVVAGDIGDPNLGLTPEIWHRLAAEVDLVVHPAALVNHVLPYRQLFGPNVVGTAEVIKLALTERIKPVTYLSTVSVAMGIPDFEEDGDIRTVSPVRPLDGGYANGYGNSKWAGEVLLREAHDLCGLPVATFRSDMILAHPRYRGQVNVPDMFTRLLLSLLITGVAPRSFYIGDGERPRAHYPGLTVDFVAEAVTTLGAQQREGYVSYDVMNPHDDGISLDVFVDWLIRAGHPIDRVDDYDDWVRRFETALTALPEKRRAQTVLPLLHAFRAPQAPLRGAPEPTEVFHAAVRTAKVGPGDIPHLDEALIDKYIRDLREFGLI
notes: expressed in E. coli BL21(DE3) with B. subtilis Sfp (phosphopantetheinylated); one of three M. smegmatis paralogues, distinct from the CAR of Moura et al
Km (purified protein [6]): 50 ± 10 µM
kcat (purified protein [6]): 2.18 ± 0.0833 s⁻¹
kcat/Km (purified protein [6]): 45000 ± 6670 M⁻¹ s⁻¹
Km (purified protein [7]): 75 ± 4 µM
kcat (purified protein [7]): 1.97 s⁻¹
kcat/Km (purified protein [7]): 26700 M⁻¹ s⁻¹
Km (purified protein [8]): 100 ± 10 µM
kcat (purified protein [8]): 4.93 s⁻¹
kcat/Km (purified protein [8]): 50000 M⁻¹ s⁻¹
Km (purified protein [9]): 160 ± 20 µM
kcat (purified protein [9]): 2.57 s⁻¹
kcat/Km (purified protein [9]): 15000 M⁻¹ s⁻¹
